Experimental findings from PMC2996723 (Journal of molecular biology, 2009) are described below.

The term stoichiometry N denotes a count of units in the complex or per binding partner.

“And” between values parts separate entries of the source, which are not always exact repeats. Identical values can stand only once.

Series [1] concerns the target HIV CA protein (p24) (human immunodeficiency virus (HIV)). The series can be described thus: co-sedimentation.
The series “SEC-MALS” concerns the molecule itself. The series can be described thus: SEC-MALS.

With HIV CA protein (p24) (natural protein), the critical concentration in series [1] turned out to be 10 µM.

B1: Rous sarcoma virus (RSV) CA protein, wild type (natural protein)
chain: PVVIKTEGPAWTPLEPKLITRLADTVRTKGLRSPITMAEVEALMSSPLLPHDVTNLMRVILGPAPYALWMDAWGVQLQTVIAAATRDPRHPANGQGRGERTNLNRLKGLADGMVGNPQGQAALLRPGELVAITASALQAFREVARLAEPAGPWADIMQGPSESFVDFANRLIKAVEGSDLPPSARAPVIIDCFRQKSQPDIQQLIRTAPSTLTTPGEIIKYVLDRQKTAPLTDQGIA
On to B1, for which the “stoichiometry N” value in the series “SEC-MALS” was 2 and 3 and 4.
